Key:
[1] = target: human ACE2 peptidase domain (amino acids 1-615 of human ACE2 with C-terminal His-10 and Avi tags) (human) (UniProt Q9BYF1)
[2] = target: human ACE2 peptidase domain (amino acids 1-615 of human ACE2 with C-terminal His-10 and Avi tags) (human) (UniProt Q9BYF1); experiment: biolayer interferometry; the reference KD of monomeric RBD is a literature value

Sequence of UniProt Q9BYF1 (Q9BYF1 18-615 limits assumed): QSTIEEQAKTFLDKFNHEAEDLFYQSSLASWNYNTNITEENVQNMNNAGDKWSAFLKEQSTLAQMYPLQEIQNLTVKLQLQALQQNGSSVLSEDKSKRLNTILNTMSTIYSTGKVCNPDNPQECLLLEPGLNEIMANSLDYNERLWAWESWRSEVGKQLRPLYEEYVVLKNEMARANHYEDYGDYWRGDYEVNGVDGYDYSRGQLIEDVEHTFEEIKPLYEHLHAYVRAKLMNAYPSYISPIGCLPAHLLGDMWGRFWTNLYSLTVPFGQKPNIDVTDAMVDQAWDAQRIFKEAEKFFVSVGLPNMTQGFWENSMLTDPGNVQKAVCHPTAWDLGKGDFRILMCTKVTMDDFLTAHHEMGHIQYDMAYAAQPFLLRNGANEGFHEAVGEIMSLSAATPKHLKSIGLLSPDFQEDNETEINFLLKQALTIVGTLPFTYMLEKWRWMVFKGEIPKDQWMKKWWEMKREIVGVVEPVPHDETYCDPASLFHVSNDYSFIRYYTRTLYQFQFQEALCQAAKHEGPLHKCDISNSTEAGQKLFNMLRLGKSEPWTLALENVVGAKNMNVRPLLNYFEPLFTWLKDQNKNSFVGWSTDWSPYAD

“trimerised SARS-CoV-2 S receptor-binding domain fused to the T4 fibritin foldon trimerisation domain (ligand; other documents disagree on this pair)” was tested. Which Kd [1] did it give?
Its Kd is 5 pM.

And the fold of the reported KD of monomeric RBD [2]?
Its fold of the reported KD of monomeric RBD is 1000 fold.

Reference: patent US11547673
